Our source for the amyloid nucleation score values is the supplement of paper PMC12042874.

± gives the uncertainty stated by the source.

The nature of this series: amyloid nucleation score (Sup35N fusion, yeast selection) (log enrichment); library NNK1; higher = more nucleation; inactive = no reads after selection. The procedure, abridged: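 Plasmid inserts were Illumina-sequenced at input and output from psi-negative yeast expressing Sup35N fused to peptides of 20 random codons. The yeast were induced with 100 μM copper sulfate for 24 hours and grown 7 days at 30°C on medium lacking adenine and uracil, and sequences with under 100 input reads were excluded. Nucleation score is the DiMSum log enrichment of output over input reads, centred on the mode score of non-aggregating sequences.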
For TYFWGSLIPEWWLFELYPLE, the amyloid nucleation score was determined as 1.66 ± 0.32.

CFSSNCMEFLSNVLYKNINP: the amyloid nucleation score worked out at 0.626 ± 0.78.

Turning to SVSVQERTSGVYSHVSSENY, the amyloid nucleation score was -0.162 ± 0.45.

KLFSWADHGGEGFEWMQLTT returned an amyloid nucleation score of -0.026 ± 0.3.

In turn, HFVAVFMFYGWPSWYSYSES showed an amyloid nucleation score of -0.93 ± 0.35.

The substance SDNYVKAYVRVRRVMTKGGS gave an amyloid nucleation score of -0.579 ± 0.58.

Consider YYWVT, for which the amyloid nucleation score was -1.16 ± 2.4.

Substance KVAVN displayed an amyloid nucleation score of 0.453 ± 0.42.

In turn, WSSWGGSTGVVRKREELCGR returned an amyloid nucleation score of -0.44 ± 0.5.

As for IYVWKTQ, the amyloid nucleation score was -0.242 ± 0.5.

Substance ATHKNWIKRDTVHSLDGC showed an amyloid nucleation score of 0.041 ± 0.26.

RQEVKAMGRFTATSLGTHSR yielded an amyloid nucleation score of 0.399 ± 0.47.

The substance YEKVSDQGNLGLASIYLAGK registered an amyloid nucleation score of -0.159 ± 0.22.

As for AFRFHQHMACREL, the amyloid nucleation score was 4.36 ± 0.055.

In the case of HKSILVDVILSHFSSCSRCH, the amyloid nucleation score was found to be 5.3 ± 0.074.

HGSECSWRLLLRHPLMGTSG came in with an amyloid nucleation score of -0.089 ± 0.49.

As for LNNLWNLGLTGLQGGNMYKI, the amyloid nucleation score entry was “inactive”.

On to CWDSNALADGCAWYKVLMDI, for which the amyloid nucleation score is 0.229 ± 0.35.

In turn, AKYPMQRLLRFLFLVVR showed an amyloid nucleation score of 0.374 ± 0.48.

For GNCPNQIGAYVVKIIRMPAL, the amyloid nucleation score is -0.311 ± 0.55.

For TYEPLTLMNGVLSVRSGPGI, the amyloid nucleation score was -0.508 ± 1.

Regarding IGFHSMDFEQYFCYFSVKTK, the amyloid nucleation score was 0.616 ± 0.75.

As for MFRWHVLGKKITP, the amyloid nucleation score was -0.067 ± 0.37.

Turning to LGLRFTCRLFGCIYTRASIM, the amyloid nucleation score is -0.735 ± 1.7.

For ESEWNIMPFDNLYLGRETVW, the amyloid nucleation score result was “inactive”.

On to ILKDVFIITVISSCSITSKL, for which the amyloid nucleation score amounted to 2.37 ± 0.18.

In the case of DKRNVASYDSMCQLLAILFN, the amyloid nucleation score was 0.512 ± 0.34.

The substance SVARFNVWVVLSSRNVTCQS returned an amyloid nucleation score of 1.82 ± 0.12.

DMDGDSLGVFWALATVYQAH had an amyloid nucleation score of -0.551 ± 0.36.

PVDVGYIRIPP came in with an amyloid nucleation score of 0.093 ± 0.87.

Take HSDSNWIVDVLHSLYDKWLV: the amyloid nucleation score worked out at 0.913 ± 0.5.

Take MGKNMVANWILHHRHSQ: the amyloid nucleation score was -0.343 ± 0.46.

For VNIRVRD, the amyloid nucleation score was 0.023 ± 0.33.

HPLVGQELKDWNNELYVHVL returned an amyloid nucleation score of 0.534 ± 0.79.

As to GFSVLCRSRPQGSTGVQIRV, the amyloid nucleation score was -0.788 ± 0.86.

The substance FEGALRLTIRSQKD had an amyloid nucleation score of 0.574 ± 0.57.

Substance FTVVWGHQVYVMTSPFSSAG had an amyloid nucleation score of 5.76 ± 0.062.

QMSKPARTLKSVRGPLDLRI: the amyloid nucleation score is -0.389 ± 0.61.

In the case of SFARVWVWSACA, the amyloid nucleation score is -0.559 ± 0.49.

The substance HVPSFRFFFRDNLI showed an amyloid nucleation score of 0.385 ± 0.46.

As for SVNKSSKVFTELANVHERAL, the amyloid nucleation score was 0.136 ± 0.66.

Turning to SFREHGRSSNRP, the amyloid nucleation score amounted to 0.423 ± 1.4.

DWFWWKIVGWVRNSNMRSYS showed an amyloid nucleation score of 0.946 ± 0.6.

For the substance YVVNGYSICGFDAEVIVLQL, the amyloid nucleation score worked out at 1.19 ± 0.18.

Substance CSGNRMDPLTVRLFVGLGIL had an amyloid nucleation score of 0.347 ± 0.43.

As to ILIGRPQYIDRYMSSCVIIL, the amyloid nucleation score result was “inactive”.

Turning to DIRNLLTWSISDVVTVRKIG, the amyloid nucleation score is -0.643 ± 0.33.

Consider NLTHARGVSSVQRGVMSRTG, for which the amyloid nucleation score is -0.747 ± 0.6.

SYGDQSVEKSLRSTATPDPQ had an amyloid nucleation score of 0.105 ± 0.35.

Regarding RMFNQAI, the amyloid nucleation score is -0.394 ± 0.74.

For KGKTNGVV, the amyloid nucleation score was -0.44 ± 0.48.

Substance YFSHTSWLYFSTPFIVVVRV returned an amyloid nucleation score of 0.25 ± 0.97.

Consider AGRMEGYESEGPPGHA, for which the amyloid nucleation score came to 0.187 ± 0.39.

For VCGFWVWLYVGVYSSIPNSM, the amyloid nucleation score was -0.015 ± 0.31.

With GDVFVYSDDWGDGVNGSGGR, the amyloid nucleation score was -1.96 ± 2.4.

Turning to IVNVAGNV, the amyloid nucleation score was 0.803 ± 0.45.

The substance HVGRIPGEVYSLKFTGLGRY yielded an amyloid nucleation score of -0.839 ± 0.95.

Consider PNSYASVHSNHKDIREAMYL, for which the amyloid nucleation score is 0.021 ± 0.44.

For HITMRLFTPYLTYNMPMSLK, the amyloid nucleation score was determined as 0.063 ± 0.24.

Consider PIYGFLWELRR, for which the amyloid nucleation score was found to be 0.486 ± 0.51.

In turn, CDGNHSRSLRLIDLGPGF came in with an amyloid nucleation score of -0.558 ± 1.1.

On to DGSVFFKADRVPLRSSNGGI, for which the amyloid nucleation score was 1.2 ± 0.52.

LVWILHVSSVNNHVDWGMLE returned an amyloid nucleation score of -1.64 ± 2.4.

MLTRLHVSLSCHFYLWRSL had an amyloid nucleation score of 0.838 ± 0.56.

Consider GNWLSS, for which the amyloid nucleation score was -0.082 ± 0.9.

The substance HTKTLAFHIILTIILRCMFL displayed an amyloid nucleation score of 0.713 ± 0.34.

In turn, HLDCGCRTFGLTWYWTKDCV had an amyloid nucleation score of -0.143 ± 0.49.

Consider HRSVGSRECRSSSEFYVLR, for which the amyloid nucleation score stood at 3.77 ± 0.088.

In turn, PWFIYDSLGFNSRCRSHLIK returned an amyloid nucleation score of -0.069 ± 0.88.

Consider CGRTYRGLS, for which the amyloid nucleation score came to 0.959 ± 0.72.

The substance SRIFCTWPVSVIYNRADSAQ displayed an amyloid nucleation score of 0.838 ± 0.56.

Substance VLYMVEACLVWGIRQSESAV came in with an amyloid nucleation score of 0.393 ± 0.73.

As for MLLACPHLTGYGVILIASIA, the amyloid nucleation score is -0.292 ± 0.36.

Consider CDLFSRACGSAMDTYNKSHI, for which the amyloid nucleation score was -1.01 ± 0.9.

The substance RFFGKYSTEGLNL returned an amyloid nucleation score of 0.992 ± 0.76.

Substance ILVGTWSLGSRAVEGNNWDH displayed an amyloid nucleation score of -0.357 ± 0.49.

Take YGPSNYTIAQSS: the amyloid nucleation score is -0.234 ± 0.43.

Regarding KPEFVNWIC, the amyloid nucleation score was found to be 0.083 ± 0.32.

The substance RKGSMWFCRCLVRMRHRALP returned an amyloid nucleation score of -0.295 ± 0.76.

In turn, KVFGTRPVRYETCRFLRLRS yielded an amyloid nucleation score of -0.013 ± 0.34.

Take LMGNEL: the amyloid nucleation score is -0.396 ± 0.4.

For VAACLKNMIESVQSVKYIWR, the amyloid nucleation score was determined as 0.837 ± 0.93.

For KLGCYTL, the amyloid nucleation score worked out at 0.367 ± 0.81.

The substance NWHPISVGSFYIVGLMRHRR came in with an amyloid nucleation score of 4.03 ± 0.11.

The substance SYILEKGLQTAYCVC returned an amyloid nucleation score of 1.42 ± 0.46.

With RVNTETMITGESGMSIDELM, the amyloid nucleation score turned out to be 1.03 ± 0.76.

For the substance DSGLSAMGMELRCYEYLVSW, the amyloid nucleation score stood at 0.886 ± 1.1.

On to NTHTAWNRIGRTWRQNWTWG, for which the amyloid nucleation score was 0.061 ± 0.47.

SYVKDNISVSGADILTGAIC registered an amyloid nucleation score of -0.367 ± 0.48.

As for FYTAYCGLALRLVTTQPCMS, the amyloid nucleation score was -0.001 ± 0.49.

EGDYNGGCCQGLLNCQ yielded an amyloid nucleation score of -0.562 ± 0.56.

Substance KRVANDWEYGFGYNPTVVGR had an amyloid nucleation score of 0.295 ± 0.46.

Substance ENHAKLHDICGASGLSREGG registered an amyloid nucleation score of 0.592 ± 0.49.

In turn, SRTVFGCEDIRERRWVFWEI displayed an amyloid nucleation score of 0.647 ± 0.69.

Substance CSYLSLRRKCVDTQFLYDMM displayed an amyloid nucleation score of -0.199 ± 0.47.

On to VVNWIASMGCIFYRVPNVSG, for which the amyloid nucleation score came out at 4.66 ± 0.13.

On to KRSTVRHYYRARCFITVAMV, for which the amyloid nucleation score is -0.365 ± 0.45.

For the substance TYLFF, the amyloid nucleation score entry is “inactive”.

Consider TRLGYFNFGSLHVSLWDFML, for which the amyloid nucleation score turned out to be 0.6 ± 0.28.

In turn, YNWVGIDRMGFYTFSVGLVC came in with an amyloid nucleation score of -0.375 ± 0.38.

For LGGFSMRVNEVVLPGVRFGD, the amyloid nucleation score was -0.037 ± 1.7.

The substance ILWPGWDYTKKIVFSCLMVI showed an amyloid nucleation score of -0.613 ± 0.29.
